This experiment concerns the target T1, natural Can f 1 (Canis lupus familiaris (dog)).
T1 construct: Can f 1, major dog allergen, lipocalin, Canis familiaris; isolated from the natural source; model in the complex with 1J11 Fab starts at Ala5; numbers count on: the mature protein; Natural preparation; also called nCan f 1
Briefly: SPR; localized surface plasmon resonance (LSPR) on an OpenSPR (Nicoya Lifesciences). Particulars: both partners purified. In general terms: In SPR one partner is held on a chip, and binding of the other changes the refractive index at the surface.

One may read the Kd as the equilibrium constant for the complex coming apart.

T1 sequence (chain, as listed by the source): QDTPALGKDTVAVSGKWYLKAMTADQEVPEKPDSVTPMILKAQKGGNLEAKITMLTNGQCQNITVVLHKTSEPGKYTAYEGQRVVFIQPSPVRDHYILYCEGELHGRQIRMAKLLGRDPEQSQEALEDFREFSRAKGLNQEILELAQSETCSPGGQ

B1: human IgE monoclonal antibody 1J11 (antibody, V domains shown)
VH: QVQLVESGGGVVQPGSSLRLSCAVSGFTVRSYGMHWVRQAPGKGLEWVALILFDGTTKHYADSVKGRFTISRDNSKDTLYLQMTSLGAEDTAMYYCVRDFNQFVKRFVDGPAFDLWGQGTRVTVSS
VL: SYELTQPPSVSVSPGQTANITCSGDKLGDKFTSWYQQRPGQSPVLVIYQDIERPSGIPERFSGSNSGNTATLTISGTQALDEADYYCQAWDTSTVVFGGGTRLTVL
notes: variable region as the heavy chain of m4 (PDB 8VQF); as the light chain of m4 (PDB 8VQF); Human IgE; details of isolation, production and purification are in Supplementary material; also called hIgE mAb 1J11; IgE mAb 1J11; source: B cell hybridomas from allergic subjects; copies: 2 + 2
The molecule B1 gave a Kd of 0.2 ± 0.1 nM.

B2: human IgE monoclonal antibody 12F3 (antibody, V domains shown)
VH: QVQLVQSGAEVQKPGSSVKVSCKASGGTFSRYPLIWVRQTPGQGLEWMGGIFPVIGRTNYAEKFQGRVTITADESTSTAYMELNSLTSEDTAVYYCARLDTYEILGYGTDVWGQGTTVTVSS
VL: EIVLTQSPATLSLSPGERATLSCRASESVSSSVAWYQQKFGQAPRLLIYDASNRATGIPARFSGSGSGTDFTLTISSLEPEDFAVYYCQLRSNWPPLTFGGGTKVQIK
notes: variable region as the heavy chain of m5 (PDB 9NPI); as the light chain of m5 (PDB 9NPI); Human IgE; details of isolation, production and purification are in Supplementary material; also called hIgE mAb 12F3; IgE mAb 12F3; source: B cell hybridomas from allergic subjects; copies: 2 + 2
B2 registered a Kd of 3.6 ± 1.3 nM.

The record behind these values is paper PMC12363406, “Human IgE monoclonal antibodies define two unusual epitopes trapping dog allergen Can f 1 in different conformations” (Protein Science : A Publication of the Protein Society, 2025).
